To fix the notation:
B1: CA9hu-1_HC5LC3 (antibody, V domains shown)
VH: EVQLVESGGGLVQPGGSLRLSCAASGFTFTDYYMHWVRQAPGKGLEWVGFIRNKASGYTPQYSASVKGRFTISRDDSKNSLYLQMNSLKTEDTAVYYCVRGGHAGSNYWYFDVWGQGTMVTVSS
VL: DIQMTQSPSSLSASVGDRVTITCHVSQNINVWLSWYQQKPGEAPKLLIYQASNLHTGVPSRFSGSGSGTDFTLTISSLQPEDFATYYCQQGQSYPFTFGQGTKLEIK
notes: Humanized from murine VII/20; also called HC5LC3 (CA9hu-1)
B2: CA9hu-1_HC1LC2 (antibody, V domains shown)
VH: B1 VH with G49A, T90I, M119T
VL: B1 VL with S10T, E42N, D70E, S76G, E81D, A84V, L104V
notes: Humanized from murine VII/20; also called HC1LC2 (CA9hu-1)
B3: CA9hu-1_HC1LC1 (antibody, V domains shown)
VH: B1 VH with G49A, T90I, M119T
VL: B1 VL with E42K, K45N, D70H, F83I, Q100G, L104V
notes: Humanized from murine VII/20; also called HC1LC1 (CA9hu-1)
B4: CA9hu-1_HC1LC3 (antibody, V domains shown)
VH: B1 VH with G49A, T90I, M119T
VL: B1 VL
notes: Humanized from murine VII/20; also called HC1LC3 (CA9hu-1)
B5: CA9hu-1_HC1LC4 (antibody, V domains shown)
VH: B1 VH with G49A, T90I, M119T
VL: B1 VL with T22N, D70G, S76R, F83Y
notes: Humanized from murine VII/20; also called HC1LC4 (CA9hu-1)
B6: CA9hu-2_HC1LC5 (antibody, V domains shown)
VH: EVQLVESGGGLVQPGGSLKLSCAASGFTFNTNAMHWVRQASGKGLEWVGRIRSKSNNYTTYYADSVKDRFTISRDDSKNTAYLQMNSLKTEDTAVYYCVCGSWFAYWGQGTLVTVSS
VL: DIVMTQSPDSLAVSLGERATINCKSSQSLLNSSNQKNYLAWYQQKPGQPPKLLIYFTSTRQSGVPDRFSGSGSGTDFTLTISSLQAEDVAVYYCQQHYSIPLTFGQGTKLEIK
notes: Humanized from murine IV/18; also called HC1LC5 (CA9hu-2)
B7: CA9hu-2_HC4LC2 (antibody, V domains shown)
VH: B6 VH with L11V, G16R, K19R, S41P, G49A, D76N, A81L, K89R, T90A
VL: B6 VL with Y42F, K51N, L53V, S82N, Y93F, K109Q, L110V
notes: Humanized from murine IV/18; also called HC4LC2 (CA9hu-2)
B8: CA9hu-2_HC3LC1 (antibody, V domains shown)
VH: QVQLVESGGGVVQPGGSLRLSCAASGFTFNTNAMHWVRQAPGRGLEWVARIRSKSNNYTTYYADSVKDRFTISRDNSKNTLYLQVNSLRAEDTAVYYCVCGSWFAYWGQGTLVTVSS
VL: B6 VL with I2V, A19V, P49S
notes: Humanized from murine IV/18; also called HC3LC1 (CA9hu-2)
B9: CA9hu-2_HC3LC2 (antibody, V domains shown)
VH: B8 VH
VL: B6 VL with Y42F, K51N, L53V, S82N, Y93F, K109Q, L110V
notes: Humanized from murine IV/18; also called HC3LC2 (CA9hu-2)
B10: CA9hu-2_HC3LC3 (antibody, V domains shown)
VH: B8 VH
VL: B6 VL with V3Q, Y93F, L110V
notes: Humanized from murine IV/18; also called HC3LC3 (CA9hu-2)
B11: CA9hu-2_HC3LC4 (antibody, V domains shown)
VH: B8 VH
VL: B6 VL with Y42F, L52V, S69T
notes: Humanized from murine IV/18; also called HC3LC4 (CA9hu-2)
B12: CA9hu-2_HC2LC2 (antibody, V domains shown)
VH: B6 VH with N79S
VL: B6 VL with Y42F, K51N, L53V, S82N, Y93F, K109Q, L110V
notes: Humanized from murine IV/18; also called HC2LC2 (CA9hu-2)
B13: CA9hu-2_HC2LC5 (antibody, V domains shown)
VH: B6 VH with N79S
VL: B6 VL
notes: Humanized from murine IV/18; also called HC2LC5 (CA9hu-2)
B14: CA9hu-2_HC4LC3 (antibody, V domains shown)
VH: B8 VH with Q1E, G16R, R43K, V85M
VL: B6 VL with V3Q, Y93F, L110V
notes: Humanized from murine IV/18; also called HC4LC3 (CA9hu-2)
B15: CA9hu-2_HC2LC1 (antibody, V domains shown)
VH: B6 VH with N79S
VL: B6 VL with I2V, A19V, P49S
notes: Humanized from murine IV/18; also called HC2LC1 (CA9hu-2)
B16: CA9hu-2_HC2LC3 (antibody, V domains shown)
VH: B6 VH with N79S
VL: B6 VL with V3Q, Y93F, L110V
notes: Humanized from murine IV/18; also called HC2LC3 (CA9hu-2)
B17: CA9hu-2_HC3LC5 (antibody, V domains shown)
VH: B8 VH
VL: B6 VL
notes: Humanized from murine IV/18; also called HC3LC5 (CA9hu-2)
B18: CA9hu-2_HC1LC2 (antibody, V domains shown)
VH: B6 VH
VL: B6 VL with Y42F, K51N, L53V, S82N, Y93F, K109Q, L110V
notes: Humanized from murine IV/18; also called HC1LC2 (CA9hu-2)
B19: CA9hu-2_HC4LC4 (antibody, V domains shown)
VH: B8 VH with Q1E, G16R, R43K, V85M
VL: B6 VL with Y42F, L52V, S69T
notes: Humanized from murine IV/18; also called HC4LC4 (CA9hu-2)
B20: CA9hu-2_HC5LC5 (antibody, V domains shown)
VH: B6 VH with L112T
VL: B6 VL
notes: Humanized from murine IV/18; also called HC5LC5 (CA9hu-2)
B21: CA9hu-2_HC1LC1 (antibody, V domains shown)
VH: B6 VH
VL: B6 VL with I2V, A19V, P49S
notes: Humanized from murine IV/18; also called HC1LC1 (CA9hu-2)
B22: CA9hu-2_HC1LC3 (antibody, V domains shown)
VH: B6 VH
VL: B6 VL with V3Q, Y93F, L110V
notes: Humanized from murine IV/18; also called HC1LC3 (CA9hu-2)
B23: CA9hu-2_HC2LC4 (antibody, V domains shown)
VH: B6 VH with N79S
VL: B6 VL with Y42F, L52V, S69T
notes: Humanized from murine IV/18; also called HC2LC4 (CA9hu-2)
B24: CA9hu-2_HC1LC4 (antibody, V domains shown)
VH: B6 VH
VL: B6 VL with Y42F, L52V, S69T
notes: Humanized from murine IV/18; also called HC1LC4 (CA9hu-2)
B25: CA9hu-2_HC5LC1 (antibody, V domains shown)
VH: B6 VH with L112T
VL: B6 VL with I2V, A19V, P49S
notes: Humanized from murine IV/18; also called HC5LC1 (CA9hu-2)
B26: CA9hu-2_HC4LC5 (antibody, V domains shown)
VH: B8 VH with Q1E, G16R, R43K, V85M
VL: B6 VL
notes: Humanized from murine IV/18; also called HC4LC5 (CA9hu-2)
B27: CA9hu-2_HC5LC2 (antibody, V domains shown)
VH: B6 VH with L112T
VL: B6 VL with Y42F, K51N, L53V, S82N, Y93F, K109Q, L110V
notes: Humanized from murine IV/18; also called HC5LC2 (CA9hu-2)
B28: CA9hu-2_HC4LC1 (antibody, V domains shown)
VH: B8 VH with Q1E, G16R, R43K, V85M
VL: B6 VL with I2V, A19V, P49S
notes: Humanized from murine IV/18; also called HC4LC1 (CA9hu-2)
B29: CA9hu-2_HC5LC4 (antibody, V domains shown)
VH: B6 VH with L112T
VL: B6 VL with Y42F, L52V, S69T
notes: Humanized from murine IV/18; also called HC5LC4 (CA9hu-2)
B30: CA9hu-2_HC5LC3 (antibody, V domains shown)
VH: B6 VH with L112T
VL: B6 VL with V3Q, Y93F, L110V
notes: Humanized from murine IV/18; also called HC5LC3 (CA9hu-2)
B31: CA9hu-2 chimeric HC0LC0 (antibody, V domains shown)
VH: EVQLVETGGGLVQPKGSLKLSCAASGFTFNTNAMHWVRQAPGKGLEWVARIRSKSNNYTTYYADSVKDRFTISRDDSQSMLYLQMNNLKTEDTAMYYCVCGSWFAYWGQGTLVTVSA
VL: DIVMTQSPSSLAMSLGQKVTMSCKSSQSLLNSSNQKNYLAWFQQKPGQSPKLLVYFTSTRQSGVPDRFIGSGSGTDFTLTISSVQAEDLADYFCQQHYSIPLTFGAGTKLELK
notes: also called HC0LC0 (CA9hu-2)

Positions count from the first letter of the chain named.

One assay has as its target T1, recombinant human CA IX (human, UniProt Q16790 38-414). Nature of the assay: SPR (Biacore 2000), antibody captured on CM5 chip, rh CA IX in flow, 25 C. As to the method:
(§1) In order to determinate the antigen-binding affinity of humanized variants, measurements of affinity constant (KD) for antibodies binding to CA IX were performed by SPR using a Biacore 2000 (T200 in case of CA9hu-2) instrument (GE Healthcare, Piscataway, NJ USA). Each humanized antibody variant was captured on the CM5 sensor chip and recombinant human CA IX (rh CA IX; 42 kDa; R&D Systems, Inc., Minneapolis MN, USA) protein as an antigen was added to the buffer flowing over the chip. The setting details of quantitative interaction analysis between humanized antibodies and rh CA IX were as follows: flow rate 30 μl/min; analysis temperature 25° C.; analysis buffer (10mM HEPES pH 7.4, 150 mM NaCl, […], 0.05% Tween 20). Results from SPR analysis are expressed as the equilibrium dissociation constant (KD) (Table 7).
In general terms: SPR reads the build-up and loss of mass on a sensor chip optically.
Turning to B1, the Kd (usually the equilibrium constant for the complex coming apart) turned out to be 56 nM.
As to B2, the equilibrium dissociation constant (Kd) came out at 80 nM.
The same measure, in the same setting: the figure for B3 is 97 nM; for B4 it is 96 nM.
On the same count and under the same terms, the figure for B5 is 100 nM.

For a further assay, the target named is CA IX expressed by cells (C-33a_CA IX transfectants; hypoxic BT-20, JIMT-1, 8-MG-BA and 42-MG-BA cells) (human, UniProt Q16790 38-459). Description: cell-based or functional assay.
As to B6, the “ADCC reporter luminescence, C-33a_CA IX against C-33a_neo cells” value (“ADCC reporter luminescence, C-33a_CA IX” for short) was 2 times.
Take B7: the “ADCC reporter luminescence, C-33a_CA IX” value amounted to 2 times.
On the same count and under the same terms, with B8 the figure was 2 times.
On the same count and under the same terms, with B9 the figure was 2 times; with B10, 2 times; with B11, 2 times.
Still for that read-out and setting: with B12 the figure was 2 times; with B13, 2 times; with B14, 2 times.
As to B15, the “ADCC reporter luminescence, C-33a_CA IX” value is 2 times.
B16: the “ADCC reporter luminescence, C-33a_CA IX” value worked out at 2 times.
Same read-out and setting: with B17 the figure was 2 times; with B18, 2 times; with B19, 2 times.
For B20, the “ADCC reporter luminescence, C-33a_CA IX” value came out at 2 times.
Take B21: the “ADCC reporter luminescence, C-33a_CA IX” value stood at 2 times.
On the same count and under the same terms, the figure for B22 is 2 times; for B23 it is 2 times; for B24 it is 2 times.
The same measure, in the same setting: with B25 the figure was 2 times.
The same measure, in the same setting: the figure for B26 is 2 times; for B27 it is 2 times.
Regarding B28, the “ADCC reporter luminescence, C-33a_CA IX” value was found to be 2 times.
Same read-out and setting: with B29 the figure was 2 times; with B30, 2 times.

In a further assay the target is T1, recombinant human CA IX. Nature of the assay: SPR (Biacore T200), antibody captured on CM5 chip, rh CA IX in flow, 25 C. As to the method: as §1
Turning to B6, the Kd worked out at 71.3 nM.
On the same count and under the same terms, with B7 the figure was 32.7 nM; with B8, 37.4 nM; with B9, 40.1 nM.
Still for that read-out and setting: the figure for B10 is 62.3 nM; for B11 it is 73.1 nM; for B12 it is 87.7 nM.
Same read-out and setting: the figure for B13 is 60.5 nM; for B14 it is 44.2 nM.
As for B15, the Kd stood at 53.9 nM.
On the same count and under the same terms, with B16 the figure was 98.3 nM; with B17, 54.3 nM; with B18, 56.1 nM.
Same read-out and setting: the figure for B19 is 74.6 nM; for B20 it is 65.1 nM; for B21 it is 44 nM.
Same read-out and setting: with B22 the figure was 70.5 nM; with B23, 60.1 nM; with B24, 74.9 nM.
As to B25, the Kd came out at 69.8 nM.
The same measure, in the same setting: the figure for B26 is 41.9 nM.
As for B27, the Kd amounted to 105 nM.
Take B28: the Kd was determined as 39.6 nM.
The same measure, in the same setting: the figure for B29 is 47.3 nM; for B30 it is 57.2 nM.
Still for that read-out and setting: the figure for B31 is 13.1 nM.

The values above are taken from patent publication US20240150490A1 (MABPRO A S, published 2024).
